Results published in publication PMC8975821, “TOX4 facilitates promoter-proximal pausing and C-terminal domain dephosphorylation of RNA polymerase II in human cells” (Communications Biology, 2022).

Target: T1, 3× Flag-tagged TOX4 (UniProt O94842 1-621)
T1 construct: TOX4, cDNA cloned into pFASTBAC.1; Also used as the parent (on) of the region row from the co-IP with TOX4 fragments, whose own constructs are not described; also called 3× Flag-TOX4; source: High Five cells infected with baculovirus, purified (anti-Flag M2 magnetic beads, eluted with 3× Flag peptide); also purified from High Five cells as the TOX4-PP1α complex
T1 sequence (looked up): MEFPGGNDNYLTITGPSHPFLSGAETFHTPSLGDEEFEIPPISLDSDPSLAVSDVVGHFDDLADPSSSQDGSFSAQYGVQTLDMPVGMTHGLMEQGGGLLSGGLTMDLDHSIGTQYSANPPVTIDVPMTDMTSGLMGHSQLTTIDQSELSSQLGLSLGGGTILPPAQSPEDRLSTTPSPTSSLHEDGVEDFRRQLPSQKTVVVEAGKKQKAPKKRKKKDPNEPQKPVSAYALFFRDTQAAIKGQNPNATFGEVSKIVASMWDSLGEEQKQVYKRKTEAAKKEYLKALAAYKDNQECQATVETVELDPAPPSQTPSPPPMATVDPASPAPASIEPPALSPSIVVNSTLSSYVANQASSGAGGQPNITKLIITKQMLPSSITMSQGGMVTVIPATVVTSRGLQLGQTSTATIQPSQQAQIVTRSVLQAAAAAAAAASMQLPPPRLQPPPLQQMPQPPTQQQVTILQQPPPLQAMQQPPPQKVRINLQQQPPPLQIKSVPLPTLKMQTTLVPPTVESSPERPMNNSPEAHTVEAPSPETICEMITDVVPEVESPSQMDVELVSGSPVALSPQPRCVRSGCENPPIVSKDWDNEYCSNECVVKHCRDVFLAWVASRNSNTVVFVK
Experiment: co-IP; in vitro binding assay of individually purified TOX4 and PP1α, β or γ; PP1 co-immunoprecipitated with TOX4; Western blot, quantified by ImageJ
Conditions: both partners purified

B1: His-tagged PP1β (enzyme, UniProt P62140 1-327, looked up)
chain: MADGELNVDSLITRLLEVRGCRPGKIVQMTEAEVRGLCIKSREIFLSQPILLELEAPLKICGDIHGQYTDLLRLFEYGGFPPEANYLFLGDYVDRGKQSLETICLLLAYKIKYPENFFLLRGNHECASINRIYGFYDECKRRFNIKLWKTFTDCFNCLPIAAIVDEKIFCCHGGLSPDLQSMEQIRRIMRPTDVPDTGLLCDLLWSDPDKDVQGWGENDRGVSFTFGADVVSKFLNRHDLDLICRAHQVVEDGYEFFAKRQLVTLFSAPNYCGEFDNAGGMMSVDETLMCSFQILKPSEKKAKYQYGGLNSGRPVTPPRTANPPKKR
notes: PP1β, catalytic subunit of protein phosphatase 1 beta; cDNA cloned into pFASTBAC.1; also called His-PP1β; source: High Five cells infected with baculovirus, purified (HisPur Ni-NTA magnetic beads, imidazole elution)
B1: binds.
